From patent US20110014669A1, “Production of 1,4 Butanediol in a Microorganism” (Microbia, Inc., priority 2009, published 2011)

Tests used:
Set-up in all cases: key: +: measureable activity detected in the assay; −: no measurable activity detected in the assay
5-hydroxy-L-norvaline [1] = experiment: In vitro substrate conversion assay, step A4; format: biochemical; settings: BDO biosynthetic pathway step A4
Method: (§1) In Vitro Substrate Conversion. Most of the enzyme assays described above are based on recording changes in absorbance at a given wavelength. In addition to such spectrophotometric readouts, these assays can also be analyzed by more direct methods using an endpoint assay where the reaction is terminated after a given period of time and the mixture is analyzed via HPLC or LC-MS methods.
(§2) The aldehyde dehydrogenase linked reaction was used for step A5.

5-hydroxy-L-norvaline [2] = experiment: Enzyme assay, aminotransferase (step A4), cell lysates; format: biochemical; settings: BDO biosynthetic pathway step A4
Method: (§3) Enzyme expression and crude lysate preparation. The enzymatic activity of each candidate enzyme is evaluated, first in E. coli and subsequently in C. glutamicum. It will be apparent to one of skill in the art that the expression and lysate preparations may need to be modified depending on the host cell and recombinant gene of interest.
(§4) E. coli: E. coli strains transformed with expression clones, for example, pUC18 or MB4124 based clones having a medium strong constitutive promoter regulating the recombinant gene of interest, are grown aerobically in LB medium (Difco) containing the appropriate antibiotic(s). At an OD600 of 0.5, IPTG is added to a final concentration of 0.25 mM. The cultures are grown to a final OD600 of 1.5 at which time the cells are collected and harvested by centrifugation. Cell pellets are resuspended in BugBuster (Novagen) reagent containing benzonase and lysozyme. Alternatively, E. coli strains transformed with expression clones, are grown overnight aerobically at 37° C. in BHI containing the appropriate antibiotic(s). 300 μL of fresh overnight culture is used to inoculate 2.7 mL BHI containing 0.25 mM IPTG and the appropriate antibiotic. The cultures are grown aerobically for 4-5 hours at 37° C. at which time the cells are collected and harvested by centrifugation. Cell pellets are frozen at −80° C. for at least 15 minutes, then thawed and resuspended in BugBuster (Novagen) reagent. Lysis and lysate collection are performed according to the manufacturer's instructions and, for example, may involve use of a sonicator and/or French press. Cleared lysates are stored on ice until enzyme assays are performed.
C. glutamicum: C. glutamicum strains transformed with MB4124 expression clones containing the recombinant gene of interest are grown aerobically in BHI broth supplemented with the proper antibiotic(s). At an OD600 of 0.5, IPTG is added to a final concentration of 0.25 mM. The cultures are grown to a final OD600 of 1.5 at which time the cells are collected and harvested by centrifugation. The pellet is washed once in one volume of water and resuspended in lysis buffer (1.0 ml 1.0 M HEPES buffer, pH 7.5, 0.5 ml 1M KOH, 10 μl 0.5M EDTA, protease inhibitor cocktail, water to 5 ml; the final pH will vary depending on the individual enzyme being tested) and one volume of 0.1 mm acid washed glass beads. The mixture is repeatedly alternately vortexed and held on ice for 15 seconds, eight times. After centrifugation for 5 min at 4,000 rpm, the supernatant lysate is removed and respun for 20 min at 10,000 rpm. Alternatively, C. glutamicum strains transformed with MB4124 expression clones containing the recombinant gene of interest are grown aerobically overnight in BHI broth supplemented with the proper antibiotic(s). Five mL of fresh overnight culture is used to inoculate 200 mL BHI containing 0.25 mM IPTG and the appropriate antibiotic. The cultures are grown aerobically at 30° C. for 5-7 hours at which time the cells are collected and harvested by centrifugation at 4° C. The pellet is resuspended in 15 mL ice cold 39 mM KH2PO4, 61 mM K2HPO4, 0.5 M KCl and lysed using a BioSpec BeadBeater and following the manufacturer's instructions. […]
(§5) Protein Assays. Protein concentrations in lysates are determined according to the methods of Bradford et al. (Anal. Biochem. 72:248-254 [1976]) or by the method of Smith et al. (Anal. Biochem. 150(1):76-85 [1985]) and lysates are assayed according to the methods below. […]

5-hydroxy-L-norvaline [3] = experiment: Bioconversion (feeding) assay, step A4; format: cell-based; settings: BDO biosynthetic pathway step A4
Method: (§6) Bioconversion assays. The activity of a candidate enzyme towards a given substrate can also be evaluated in vivo using a simple feeding assay. A strain expressing the candidate enzyme is grown in the presence of the substrate for which activity is desired. Samples of the culture are removed periodically and the cells are removed via centrifugation. The culture supernatant is then analyzed (e.g., by LC-MS) to determine how much of the substrate has been removed and how much of a given product is present.
as §2

4-hydroxybutanal [4] = experiment: Enzyme assay, oxidoreductase (step A6), cell lysates; format: biochemical; settings: BDO biosynthetic pathway step A6
Method: as §3
as §4, with “performed. […]” for “performed.”
as §5

4-hydroxybutanal [5] = experiment: Bioconversion (feeding) assay, step A6; format: cell-based; settings: BDO biosynthetic pathway step A6
Method: as §6, §2

4-hydroxybutanal [6] = experiment: In vitro substrate conversion assay, step A6; format: biochemical; settings: BDO biosynthetic pathway step A6
Method: as §1, §2

B1: BcaTPf: Branched-chain-amino-acid transaminase from Pseudomonas fluorescens, step A4 enzyme candidate, SEQ ID NO. 58 (protein, listed as Pseudomonas fluorescens)
chain: MGNESINWDKLGFDYIKTDKRFLQVWKNGEWQEGTLTDDNVLHISEGSTALHYGQQCFEGLKAYRCKDGSINLFRPDQNAARMQRSCARLLMPHVPTDVFIDACKQVVKANEHFIPPYGSGGALYLRPFVIGTGDNIGVRTAPEFIFSVFCIPVGAYFKGGLVPHNFQISTFDRAAPQGTGAAKVGGNYAASLMPGSEAKKAGFADAIYLDPMTHSKIEEVGSANFFGITHDNQFITPKSPSVLPGITRLSLIELAKTRLGLDVVEGEVFIDKLDQFKEAGACGTAAVISPIGGIQYNGKLHVFHSETEVGPITQKLYKELTGVQTGDVEAPQGWIVKV
+: In Vitro Substrate Conversion Assay (5-hydroxy-L-norvaline [1]) | Enzyme Assay (5-hydroxy-L-norvaline [2]) | Bioconversion Assay (5-hydroxy-L-norvaline [3])

B2: ADH6Sc: Alcohol dehydrogenase from Saccharomyces cerevisiae, step A6 enzyme candidate, SEQ ID NO. 47 (protein, listed as Saccharomyces cerevisiae)
chain: MSYPEKFEGIAIQSHEDWKNPKKTKYDPKPFYDHDIDIKIEACGVCGSDIHCAAGHWGNMKMPLVVGHEIVGKVVKLGPKSNSGLKVGQRVGVGAQVFSCLECDRCKNDNEPYCTKFVTTYSQPYEDGYVSQGGYANYVRVHEHFVVPIPENIPSHLAAPLLCGGLTVYSPLVRNGCGPGKKVGIVGLGGIGSMGTLISKAMGAETYVISRSSRKREDAMKMGADHYIATLEEGDWGEKYFDTFDLIVVCASSLTDIDFNIMPKAMKVGGRIVSISIPEQHEMLSLKPYGLKAVSISYSALGSIKELNQLLKLVSEKDIKIWVETLPVGEAGVHEAFERMEKGDVRYRFTLVGYDKEFSD
+: Enzyme Assay (4-hydroxybutanal [4]) | Bioconversion Assay (4-hydroxybutanal [5]) | In Vitro Substrate Conversion Assay (4-hydroxybutanal [6])
